In patent US20260193348A1 (ANTENGENE BIOLOGICS, published 2026) one finds binding result and EC50 data, which are given here for 7 molecules.

In test [1] the target is T1, CD3ε monomer (UniProt P07766 23-126).
T1 construct: also called nature CD3ε; denatured CD3ε monomer
Nature of the test: ELISA, soluble protein coated at 0.2 or 2 ug/mL.

The target of test [2] is T2, CD19 on NALM6 cells, Raji cells and primary B cells (human, UniProt P15391 20-556).
T2 construct: whole, on cells; Endogenous CD19 on human cell lines / donor B cells; also called NALM6 cells expressing CD19; Raji cells expressing CD19
T2 sequence (looked up): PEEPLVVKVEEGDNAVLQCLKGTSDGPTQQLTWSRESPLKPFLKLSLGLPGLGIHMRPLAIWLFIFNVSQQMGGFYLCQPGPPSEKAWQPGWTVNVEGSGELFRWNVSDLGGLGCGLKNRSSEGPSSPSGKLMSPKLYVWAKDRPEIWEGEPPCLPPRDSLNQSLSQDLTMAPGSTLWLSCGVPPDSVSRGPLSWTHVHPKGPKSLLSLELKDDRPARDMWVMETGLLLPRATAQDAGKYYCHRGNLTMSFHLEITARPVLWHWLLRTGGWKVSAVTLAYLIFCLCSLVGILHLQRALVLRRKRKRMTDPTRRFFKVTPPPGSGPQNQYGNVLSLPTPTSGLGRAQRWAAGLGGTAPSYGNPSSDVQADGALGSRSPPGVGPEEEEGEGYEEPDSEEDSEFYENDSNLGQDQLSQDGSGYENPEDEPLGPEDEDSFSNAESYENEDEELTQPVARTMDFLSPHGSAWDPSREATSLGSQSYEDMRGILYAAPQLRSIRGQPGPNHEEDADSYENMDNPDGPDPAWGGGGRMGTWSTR
Nature of the test: FACS on NALM6 cells expressing CD19 (FIG. 45A).

The target of test [3] is T3, CD3 on T cells / Jurkat cells (human, UniProt P07766 23-207; P04234 22-171; P09693 23-182).
T3 construct: whole, on cells; Native CD3 complex on CD3+ T cells isolated from normal donors or on Jurkat cells; also called human CD3; CD3+ T cells
The test is described as follows: FACS on Jurkat cells expressing CD3.

In test [4] the target is T2, CD19 on NALM6 cells, Raji cells and …. The test is described as follows: FACS on primary B cells from healthy donors' PBMC (FIG. 45D). Here is the method:
(§1) To evaluate the binding affinity of the generated bispecific antibodies to NALM6 cells, Raji cells, Primary B cells, DoHH2 cells, SU-DHL-1 cells and Jurkat cells, the NALM6 cells expressing CD19, Raji cells expressing CD19, Primary B cells, DoHH2 cells expressing CD20, SU-DHL-1 cells without expressing CD19 or CD20 and Jurkat cells expressing CD3 were stained by the test antibodies and the binding affinity was determined by FACS analysis. Primary B cells were isolated from healthy donors' PBMC by human B cell enrichment Kit (Stemcell #19054). The protocol of FACS analysis is described as follows: [0933] (a) The cells from each cell line above were harvested and centrifuged at 300 g for 5 min, and the supernatant were discarded. […] (b) The cells were washed 2 times with FACS buffer. [0935] (c) Step (a) was repeated. [0936] […] [0937] (e) Step (b) was repeated and the cells were resuspended with 100 μl/well diluted secondary antibody, and incubated at 4° C. for 45 minutes in the dark. [0938] (f) Step (b) was repeated and the cells were resuspended the cells with 150 μl/well FACS buffer and kept in dark for FACS analysis.

Test [5] has the same target. The test is described as follows: FACS on NALM6 cells expressing CD19, another experiment (FIG. 45B). Here is the method: as §1
For test [6] the target is unchanged. The test is described as follows: FACS on Raji cells expressing CD19 (FIG. 45C). Here is the method:
as §1

For test [7], the target named is T4, GPRC5D on multiple myeloma cells (human, UniProt Q9NZD1 1-345).
T4 construct: whole, on cells; Endogenous GPRC5D on multiple myeloma cell lines; also called G-protein coupled receptor family C group 5 member D; MM.1S, MOLP-8, L363, RPMI8226 cells
Nature of the test: FACS on multiple myeloma cell lines.

Test [8] deals with T3, CD3 on T cells / Jurkat cells. Nature of the test: FACS on Jurkat cells.

T3 sequence (P07766 23-207, chain 1 of 3): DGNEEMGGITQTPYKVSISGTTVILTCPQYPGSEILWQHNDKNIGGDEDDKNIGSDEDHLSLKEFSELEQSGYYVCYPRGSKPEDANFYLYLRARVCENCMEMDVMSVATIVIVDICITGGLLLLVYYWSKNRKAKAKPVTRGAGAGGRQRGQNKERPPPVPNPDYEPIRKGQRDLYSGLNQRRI
T3 sequence (P04234 22-171, chain 2 of 3): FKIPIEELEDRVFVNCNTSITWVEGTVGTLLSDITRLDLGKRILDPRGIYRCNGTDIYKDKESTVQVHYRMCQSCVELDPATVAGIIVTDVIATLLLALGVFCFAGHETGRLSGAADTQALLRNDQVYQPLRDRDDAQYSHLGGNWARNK
T3 sequence (P09693 23-182, chain 3 of 3): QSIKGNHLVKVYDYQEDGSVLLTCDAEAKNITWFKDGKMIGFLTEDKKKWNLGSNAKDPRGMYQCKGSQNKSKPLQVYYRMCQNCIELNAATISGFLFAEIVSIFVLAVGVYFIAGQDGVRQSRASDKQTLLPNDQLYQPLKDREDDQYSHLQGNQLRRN
T1 sequence (P07766 23-126): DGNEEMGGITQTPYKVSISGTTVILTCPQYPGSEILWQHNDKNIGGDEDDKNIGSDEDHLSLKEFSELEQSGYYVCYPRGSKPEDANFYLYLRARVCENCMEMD
T4 sequence (Q9NZD1 whole entry): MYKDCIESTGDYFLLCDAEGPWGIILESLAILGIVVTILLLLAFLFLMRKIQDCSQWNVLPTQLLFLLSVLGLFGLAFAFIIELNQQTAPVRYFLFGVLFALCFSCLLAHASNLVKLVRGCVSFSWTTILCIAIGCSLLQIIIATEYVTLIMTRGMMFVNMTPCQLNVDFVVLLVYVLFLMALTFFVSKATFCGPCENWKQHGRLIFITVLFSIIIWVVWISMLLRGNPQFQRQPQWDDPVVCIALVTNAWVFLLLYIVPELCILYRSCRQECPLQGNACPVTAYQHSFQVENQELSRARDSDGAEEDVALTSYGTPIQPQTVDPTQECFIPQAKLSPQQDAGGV

B1: 40E9-L2H3 (antibody, V domains shown)
VH: EVQLVQSGAEVKKPGSSVKVSCKASGYTFSSYVIHWVRQAPGQCLEWMGYINPYNDVIKYNEKFKGRVTLTSDKSTSTAYMELSSLRSEDTAVYYCARDSYYSYDGFAYWGQGTLVTVSS
VL: EIVLTQSPDFQSVTPKEKVTITCSASSSVSYMHWYQQKPDQSPKRLIYDTSKLASGVPSRFSGSGSGTDFTLTINSLEAEDAATYYCQQWSSNPPTFGCGTKVEIK
notes: also called ch40E9-derived humanized antibody 40E9-L2H3
As for B1, the binding result in test [1] is listed as “no binding”.

B2: 40E9-L2H3-N55S.H (antibody, V domains shown)
VH: EVQLVQSGAEVKKPGSSVKVSCKASGYTFSSYVIHWVRQAPGQCLEWMGYINPYSDVIKYNEKFKGRVTLTSDKSTSTAYMELSSLRSEDTAVYYCARDSYYSYDGFAYWGQGTLVTVSS
VL: EIVLTQSPDFQSVTPKEKVTITCSASSSVSYMHWYQQKPDQSPKRLIYDTSKLASGVPSRFSGSGSGTDFTLTINSLEAEDAATYYCQQWSSNPPTFGCGTKVEIK
notes: also called 40E9-N55S
Consider B2, for which, in test [1], the binding result is “no binding”.

B3: ch40E9 (antibody, V domains shown)
VH: EVQLQLSGPELVKPGASVKMSCKASGYTFSSYVIHWVKQKPGQGLEWIGYINPYNDVIKYNEKFKGKATLTSDKSSSTAYMELSSLTSEDSAVYYCARDSYYSYDGFAYWGQGTLVTVSA
VL: QIVLTQSPAIMSASPGEKVTMTCSASSSVSYMHWYQQKSGTSPKRWIYDTSKLASGVPARFSGSGSGTSYSLTISSMEAEDAATYYCQQWSSNPPTFGGGTKVEIK
notes: also called 40-C12-C10-E9
In the case of B3, the binding result in test [1] is given as “no binding”.

B4: ATG201-Y101F-19F (bispecific antibody, human IgG1, kappa, L234A L235A)
heavy 1: not shown
heavy 2: EVKLQESGPGLVAPSQSLSVTCTVSGVSLPDYGVSWIRQPPRKGLEWLGVIWGSETTYYNSALKSRLTIIKDNSKSQVFLKMNSLQTDDTAIYYCAKHYYYGGSYAMDYWGQGTSVTVSSASTKGPSVFPLAPSSKSTSGGTAALGCLVKDYFPEPVTVSWNSGALTSGVHTFPAVLQSSGLYSLSSVVTVPSSSLGTQTYICNVNHKPSNTKVDKKVEPKSCGGGGSGGGGSEVQLVQSGAEVKKPGSSVKVSCKASGYTFSSYVIHWVRQAPGQCLEWMGYINPYNDVIKYNEKFKGRVTLTSDKSTSTAYMELSSLRSEDTAVYYCARDSFYSYDGFAYWGQGTLVTVSSGGGGSGGGGSGGGGSGGGGSEIVLTQSPDFQSVTPKEKVTITCSASSSVSYMHWYQQKPDQSPKRLIYDTSKLASGVPSRFSGSGSGTDFTLTINSLEAEDAATYYCQQWSSNPPTFGCGTKVEIKGGGGSGGGGSDKTHTCPPCPAPEAAGGPSVFLFPPKPKDTLMISRTPEVTCVVVDVSHEDPEVKFNWYVDGVEVHNAKTKPREEQYNSTYRVVSVLTVLHQDWLNGKEYKCKVSNKALPAPIEKTISKAKGQPREPQVCTLPPSREEMTKNQVSLSCAVKGFYPSDIAVEWESNGQPENNYKTTPPVLDSDGSFFLVSKLTVDKSRWQQGNVFSCSVMHEALHNHYTQKSLSLSPGK
light: DIQMTQTTSSLSASLGDRVTISCRASQDISKYLNWYQQKPDGTVKLLIYHTSRLHSGVPSRFSGSGSGTDYSLTISNLEQEDIATYFCQQGNTLPYTFGGGTKLEITRTVAAPSVFIFPPSDEQLKSGTASVVCLLNNFYPREAKVQWKVDNALQSGNSQESVTEQDSKDSTYSLSSTLTLSKADYEKHKVYACEVTHQGLSSPVTKSFNRGEC
notes: CD19xCD3 Fab-scFv-Fab: two C19F Fabs, anti-CD3 scFv 40E9-L2H3-Y101F.H; L234A/L235A
What is called EC50 is the concentration at which the effect is half-maximal. As to B4, the EC50 in test [2] stood at 4.36 nM; in test [4], 0.468 nM; in test [5], 0.609 nM; in test [6], 1.13 nM. Also, in test [3], the binding result is recorded as “binds”.

B5: ATG201-N55S-19F (bispecific antibody, human IgG1, kappa, L234A L235A)
heavy 1: not shown
heavy 2: EVKLQESGPGLVAPSQSLSVTCTVSGVSLPDYGVSWIRQPPRKGLEWLGVIWGSETTYYNSALKSRLTIIKDNSKSQVFLKMNSLQTDDTAIYYCAKHYYYGGSYAMDYWGQGTSVTVSSASTKGPSVFPLAPSSKSTSGGTAALGCLVKDYFPEPVTVSWNSGALTSGVHTFPAVLQSSGLYSLSSVVTVPSSSLGTQTYICNVNHKPSNTKVDKKVEPKSCGGGGSGGGGSEVQLVQSGAEVKKPGSSVKVSCKASGYTFSSYVIHWVRQAPGQCLEWMGYINPYSDVIKYNEKFKGRVTLTSDKSTSTAYMELSSLRSEDTAVYYCARDSYYSYDGFAYWGQGTLVTVSSGGGGSGGGGSGGGGSGGGGSEIVLTQSPDFQSVTPKEKVTITCSASSSVSYMHWYQQKPDQSPKRLIYDTSKLASGVPSRFSGSGSGTDFTLTINSLEAEDAATYYCQQWSSNPPTFGCGTKVEIKGGGGSGGGGSDKTHTCPPCPAPEAAGGPSVFLFPPKPKDTLMISRTPEVTCVVVDVSHEDPEVKFNWYVDGVEVHNAKTKPREEQYNSTYRVVSVLTVLHQDWLNGKEYKCKVSNKALPAPIEKTISKAKGQPREPQVCTLPPSREEMTKNQVSLSCAVKGFYPSDIAVEWESNGQPENNYKTTPPVLDSDGSFFLVSKLTVDKSRWQQGNVFSCSVMHEALHNHYTQKSLSLSPGK
light: DIQMTQTTSSLSASLGDRVTISCRASQDISKYLNWYQQKPDGTVKLLIYHTSRLHSGVPSRFSGSGSGTDYSLTISNLEQEDIATYFCQQGNTLPYTFGGGTKLEITRTVAAPSVFIFPPSDEQLKSGTASVVCLLNNFYPREAKVQWKVDNALQSGNSQESVTEQDSKDSTYSLSSTLTLSKADYEKHKVYACEVTHQGLSSPVTKSFNRGEC
notes: CD19xCD3 Fab-scFv-Fab: two C19F Fabs, anti-CD3 scFv 40E9-L2H3-N55S.H; L234A/L235A
In the case of B5, the EC50 in test [2] is 4.91 nM; in test [4] it was 1.08 nM; in test [5], 0.847 nM; in test [6] it was 1.5 nM. Besides, the binding result in test [3] is listed as “binds”.

B6: Bis-40E9-L2H3-D105R.H (bispecific antibody)
VH: EVQLVQSGAEVKKPGASVKVSCKASGYTFTSYVIHWVRQAPGQGLEWMGYFNPYNDGTKYNEEFKGRVTLTSDKSTSTAYMELRSLRSDDTAVYYCARGGVRRYFDVWGQGTTVTVSS
VL: DIQMTQSPSSLSASVGDRVTITCRASQDIGSNLNWLQQKPGKAIKRLIYATFGLDSGVPSRFSGSRSGTDFTLTISSLQPEDFATYYCQQYASFPYTFGGGTKVEIK
scFv: EVQLVQSGAEVKKPGSSVKVSCKASGYTFSSYVIHWVRQAPGQCLEWMGYINPYNDVIKYNEKFKGRVTLTSDKSTSTAYMELSSLRSEDTAVYYCARDSYYSYRGFAYWGQGTLVTVSSGGGGSGGGGSGGGGSGGGGSEIVLTQSPDFQSVTPKEKVTITCSASSSVSYMHWYQQKPDQSPKRLIYDTSKLASGVPSRFSGSGSGTDFTLTINSLEAEDAATYYCQQWSSNPPTFGCGTKVEIK
notes: L234A/L235A
In the case of B6, the binding result in test [7] and in test [8] was “binds” each time.

B7: ATG201-D105R-19B (bispecific antibody, human IgG1, kappa, L234A L235A)
heavy 1: not shown
heavy 2: QVQLQQSGAELVRPGSSVKISCKASGYAFSSYWMNWVKQRPGQGLEWIGQIWPGDGDTNYNGKFKGKATLTADESSSTAYMQLSSLASEDSAVYFCARRETTTVGRYYYAMDYWGQGTTVTVSSASTKGPSVFPLAPSSKSTSGGTAALGCLVKDYFPEPVTVSWNSGALTSGVHTFPAVLQSSGLYSLSSVVTVPSSSLGTQTYICNVNHKPSNTKVDKKVEPKSCGGGGSGGGGSEVQLVQSGAEVKKPGSSVKVSCKASGYTFSSYVIHWVRQAPGQCLEWMGYINPYNDVIKYNEKFKGRVTLTSDKSTSTAYMELSSLRSEDTAVYYCARDSYYSYRGFAYWGQGTLVTVSSGGGGSGGGGSGGGGSGGGGSEIVLTQSPDFQSVTPKEKVTITCSASSSVSYMHWYQQKPDQSPKRLIYDTSKLASGVPSRFSGSGSGTDFTLTINSLEAEDAATYYCQQWSSNPPTFGCGTKVEIKGGGGSGGGGSDKTHTCPPCPAPEAAGGPSVFLFPPKPKDTLMISRTPEVTCVVVDVSHEDPEVKFNWYVDGVEVHNAKTKPREEQYNSTYRVVSVLTVLHQDWLNGKEYKCKVSNKALPAPIEKTISKAKGQPREPQVCTLPPSREEMTKNQVSLSCAVKGFYPSDIAVEWESNGQPENNYKTTPPVLDSDGSFFLVSKLTVDKSRWQQGNVFSCSVMHEALHNHYTQKSLSLSPGK
light: not shown
notes: CD19xCD3 Fab-scFv-Fab: two C19B Fabs, anti-CD3 scFv 40E9-L2H3-D105R.H; L234A/L235A
Regarding B7, in test [2], the EC50 turned out to be 2.9 nM. In addition, the binding result in test [3] was “binds”.
